US20230272117A1 (published 2023)

Legend:
Test in all cases: FACS cell binding
C1.844.hu31 = biological target: C1.844.hu31
C1.844.hu41 = biological target: C1.844.hu41
C1.861.hu51 = biological target: C1.861.hu51
C1.861.hu31 = biological target: C1.861.hu31
C1.831.hu31 = biological target: C1.831.hu31
[1] = biological target: human ATP Binding Cassette Subfamily C Member 1 (ABCC1) (UniProt P33527 1-1531)
cynomolgus monkey ABCC1 = cynomolgus monkey ABCC1 (UniProt Q864R9 1-1531)

| Binder | Kd (C1.844.hu31) | Kd (C1.844.hu41) | Kd (C1.861.hu51) | Kd (C1.861.hu31) | Kd (C1.831.hu31) | Kd [1] | Kd (cynomolgus monkey ABCC1) |
| --- | --- | --- | --- | --- | --- | --- | --- |
| C6.hC1 (other) MALRGFCSADGSDPLWDWNVTWNTSNPDFTKCFQNTVLVWVPCFYLWACFPFYFLYLSRHDRGYIQMTPLNKTKTALGFLLWIVCWADLFYSFWERSRGIFLAPVFLVSPTLLGITMLLATFLIQLERRKGVQSSGIMLTFWLVALVCALAILRSKIMTALKEDAQVDLFRDITFYVYFSLLLIQLVLSCFSDRSPLFSETIHDPNPCPESSASFLSRITFWWITGLIVRGYRQPLEGSDLWSLNKEDTSEQVVPVLVKNWKKECAKTRKQPVKVVYSSKDPAQPKESSKVDANEEVEALIVKSPQKEWNPSLFKVLYKTFGPYFLMSFFFKAIHDLMMFSGPQILKLLIKFVNDTKAPDWQGYFYTVLLFVTACLQTLVLHQYFHICFVSGMRIKTAVIGAVYRKALVITNSARKSSTVGEIVNLMSVDAQRFMDLATYINMIWSAPLQVILALYLLWLNLGPSVLAGVAVMVLMVPVNAVMAMKTKTYQVAHMKSKDNRIKLMNEILNGIKVLKLYAWELAFKDKVLAIRQEELKVLKKSAYLSAVGTFTWVCTPFLVALCTFAVYVTIDENNILDAQTAFVSLALFNILRFPLNILPMVISSIVQASVSLKRLRIFLSHEELEPDSIERRPVKDGGGTNSITVRNATFTWARSDPPTLNGITFSIPEGALVAVVGQVGCGKSSLLSALLAEMDKVEGHVAIKGSVAYVPQQAWIQNDSLRENILFGCQLEEPYYRSVIQACALLPDLEILPSGDRTEIGEKGVNLSGGQKQRVSLARAVYSNADIYLFDDPLSAVDAHVGKHIFENVIGPKGMLKNKTRILVTHSMSYLPQVDVIIVMSGGKISEMGSYQELLARDGAFAEFLRTYASTEQEQDAEENGVTGVSGPGKEAKQMENGMLVTDSAGKQLQRQLSSSSSYSGDISRHHNSTAELQKAEAKKEETWKLMEADKAQTGQVKLSVYWDYMKAIGLFISFLSIFLFMCNHVSALASNYWLSLWTDDPIVNGTQEHTKVRLSVYGALGISQGIAVFGYSMAVSIGGILASRCLHVDLLHSILRSPMSFFERTPSGNLVNRFSKELDTVDSMIPEVIKMFMGSLFNVIGACIVILLATPIAAIIIPPLGLIYFFVQRFYVASSRQLKRLESVSRSPVYSHFNETLLGVSVIRAFEEQERFIHQSDLKVDENQKAYYPSIVANRWLAVRLECVGNCIVLFAALFAVISRHSLSAGLVGLSVSYSLQVTTYLNWLVRMSSEMETNIVAVERLKEYSETEKEAPWQIQETAPPSSWPQVGRVEFRNYCLRYREDLDFVLRHINVTINGGEKVGIVGRTGAGKSSLTLGLFRINESAEGEIIIDGINIAKIGLHDLRFKITIIPQDPVLFSGSLRMNLDPFSQYSDEEVWTSLELAHLKDFVSALPDKLDHECAEGGENLSVGQRQLVCLARALLRKTKILVLDEATAAVDLETDDLIQSTIRTQFEDCTVLTIAHRLNTIMDYTRVIVLDKGEIQEYGAPSDLLQQRGLFYSMAKDAGLV | 518 nM | 94 nM | – | – | – | – | – |
| C6.cC1 (other) MALRGFCSADGSDPLWDWNVTWYTSNPDFTKCFQNTVLVWVPCFYLWACFPFYFLYLSRHDRGYIQMTLLNKTKTALGFLLWIVCWADLFYSFWERSRGIFLAPVFLVSPTLLGITMLLATFLIQLERRKGVQSSGIMLTFWLVALLCALAILRSKIMTALKEDVQVDLFRDMTFYVYFSLVLIQLVLSCFSDRSPLFSETIHDPNPCPESSASFLSRITFWWITGLIVRGYRQPLEGSDLWSLNKEDTSEQVVPVLVKNWKKECAKTRKQPVKVVYSSKDPAQPKDSSKVDANEEVEALIVKSPQKEWNPSLFKVLYKTFGPYFLMSFFFKAIHDLMMFSGPEILKLLINFVNDTKAPDWQGYFYTALLFVAACLQTLVLHQYFHICFVSGMRIKTAVIGAVYRKALVITNAARKSSTVGEIVNLMSVDAQRFMDLATYINMIWSAPLQVILALYLLWRNLGPPILAGVAVMVLMVPVNAVMAMKTKTYQVAHMKSKDNRIKLMNEILNGIKVLKLYAWELAFKDKVLAIRQEELKVLKKSAYLAAVGTFTWVCTPFLVALCTFAVYVTIDKNNVLDAQKAFVSLALFNILRFPLNILPMVISSIVQASVSLKRLRIFLSHEELEPDSIERRPVKDGGDTNSITVRNATFTWARSDPPTLNGITFSIPEGALVAVVGQVGCGKSSLLSALLAEMDKVEGHVALKGSVAYVPQQAWIQNDSLQENILFGCQLEEPYYRSVIQACALLPDLEILPSGDRTEIGEKGVNLSGGQKQRVSLARAVYCNADIYLFDDPLSAVDAHVGKHIFENVIGPKGMLKNKTRILVTHSMSYLPQVDVIIVMSGGKISEMGSYQELLARDGAFAEFLRTYASAEQEQDPEDNGVTGVSGPGKEAKQMENGMLVTDSAGKQLQRQLSSSSSYSGDVSRQHNSTAELQKDGAKKEETWKLMEADKAQTGQVKLSVYWDYMKAIGLFISFLSIFLFICNHVAALASNYWLSLWTDDPIVNGTQEHTKVRLSVYGALGISQGIAVFGYSMAVSIGGILASRCLHVDLLHSILRSPMSFFERTPSGNLVNRFSKELDTVDSMIPEVIKMFMGSLFNVIGACIVILLATPIAAIIIPPLGLIYFFVQRFYVASSRQLKRLESVSRSPVYSHFNETLLGVSVIRAFEEQERFIHQSDLKVDENQKAYYPSIVANRWLAVRLECVGNCIVLFAALFAVISRHSLSAGLVGLSVSYSLQVTTYLNWLVRMSSEMETNIVAVERLKEYSETEKEAPWQIQETAPPSNWPQVGRVEFRNYCLRYREDLDFVLRHINVTINGGEKVGIVGRTGAGKSSLTLGLFRINESAEGEIIIDGINIARIGLHDLRFKITIIPQDPVLFSGSLRMNLDPFSQYSDEEVWTSLELAHLKGFVSALPDKLDHECAEGGENLSVGQRQLVCLARALLRKTKILVLDEATAAVDLETDDLIQSTIRTQFEDCTVLTIAHRLNTIMDYTRVIVLDKGEIQEYGAPSDLLQQRGLFYNMARDAGLV | 253 nM | 107 nM | 125 nM | 110 nM | 1070 nM | – | – |
| C1.851.hu12 (antibody, V domains shown) VH: EVQLQESGPGLVKPSETLSLTCTVSGFSLTNNGVSWIRQPPGKGLEWIAAISSGGNIYYNSAFKSRLTISRDTSKNQVSLKLSSVTAADTAVYYCARHRGYYGYNWGYFDYWGQGTLVTVSS VL: DIQLTQSPSSLSASVGDRVTITCKGSQNINNYLAWYQQKPGKAPKLLIYKTNSLQTGIPSRFSGSGSGTDYTLTISSLQPEDFATYYCYQYNNGYTFGQGTKLEIK | – | – | – | – | – | 153 nM | 181 nM |
